This is an account of results in patent US20210379110A1 (LENTIGEN TECHNOLOGY, published 2021).

First the molecules themselves.
T1: recombinant human CD19 (labeled) (human, UniProt P15391 20-291, limits assumed)
T1 construct: Fluorescently labeled antigen titrated on yeast; The sorting steps used CD19-Fc/Anti-Hu-Fc, so the labeled antigen may be the Fc fusion; also called labeled CD19; recombinant human CD19 protein
T1 sequence (looked up): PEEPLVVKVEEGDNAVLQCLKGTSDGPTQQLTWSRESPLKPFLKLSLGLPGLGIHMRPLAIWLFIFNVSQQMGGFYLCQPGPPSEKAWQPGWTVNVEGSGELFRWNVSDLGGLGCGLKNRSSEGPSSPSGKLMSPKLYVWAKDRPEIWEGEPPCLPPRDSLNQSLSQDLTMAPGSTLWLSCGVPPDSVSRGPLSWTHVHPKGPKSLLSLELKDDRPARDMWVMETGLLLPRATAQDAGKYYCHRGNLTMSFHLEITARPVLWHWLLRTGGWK

T2: TSLPR-Fc peptide (R&D systems) (UniProt Q9HC73 25-231)
T2 construct: Bought reagent (R&D systems); also called TSLPR-Fc reagent; not shown: Fc part of the bought reagent
T2 sequence (looked up): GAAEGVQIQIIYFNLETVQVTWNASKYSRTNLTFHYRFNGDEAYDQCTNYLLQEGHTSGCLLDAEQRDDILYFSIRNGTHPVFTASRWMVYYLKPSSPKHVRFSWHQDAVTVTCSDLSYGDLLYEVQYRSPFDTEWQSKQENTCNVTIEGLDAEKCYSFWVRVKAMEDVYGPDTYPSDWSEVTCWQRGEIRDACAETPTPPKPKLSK

B1: human anti-CD19 ScFv binder M19217 (founder clone) (scFv)
chain: EVQLVQSGAEVKKPGASVKVSCKASGYTFTSYYMHWVRQAPGQGLEWMGIINPSGGSTSYAQKFQGRVTMTRDTSTSTVYMELSSLRSEDTAVYYCARSDRGITATDAFDIWGQGTMVTVSSGGGGSGGGGSGGGGSQSVLTQPPSVSVAPGQTAKITCGGSDIGNKNVHWYQQKPGQAPVLVVYDDYDRPSGIPERFSGSNSGDAATLTISTVEVGDEADYFCQVWDSSGDPYWVFGGGTQLTVLG
B2: human anti-CD19 ScFv binder M19217-23 (scFv)
chain: B1 chain with S31G, M48I, I50L, A61E, T69A, N166D, S229G, S230I
B3: human anti-CD19 ScFv binder M19217-40 (scFv)
chain: B1 chain with K13R, E46V, I50L, I157T, F223V, S229G
B4: human anti-CD19 ScFv binder M19217-38 (scFv)
chain: B1 chain with K13R, Q43R, I50L, K63E, T74M, T104S, T154M, D189N, S229G, V245D
B5: human anti-CD19 ScFv binder M19217-29 (scFv)
chain: B1 chain with I50M, V169A, P195S, S229G, Y234F
B6: human anti-CD19 ScFv binder M19217-7 (scFv)
chain: B1 chain with K12N, I50M, A105S, V149L, D189N, A206S, S229G
B7: human anti-CD19 ScFv binder M19217-2 (scFv)
chain: B1 chain with L45F, I50L, G56S, S85N, S148P, T158I, S229G
B8: human anti-CD19 ScFv binder M19217-1 (scFv, V domains shown)
VH: EVQLVQSGAEVKKPGASVKVSCKASGYTFTSYYMHWVRQAPGQGLEWMGLINPSGGSTSYAQKFQGRVTMTRDTSTSTVYMELSSLRSEDTAVYYCARSDRGITATDAFDIWGQGTMVTVSS
VL: QSVLTQPPSVSVAPGRMAKITCGGSDIGNKNVHWYQQKPGQAPVLVVYDDYDRPSGIPERFSGSNSGDAATLTISTVEVGDEADYFCQVWDGSGDPYWMFGGGTQLTVLG
notes: also called scFv of LTG2065
B9: D0101 (EF-1a-TSLPR-CD19 (19217_1) CD8 BBz) (other)
chain: QVTLKESGPGILKPSQTLSLTCSFSGFSLSTSGMGVGWIRQPSGKGLEWLAHIWWDDDKYYNPSLKSQLTISKDTSRNQVFLKITSVDTADTATYYCSRRPRGTMDAMDYWGQGTSVTVSSGGGGSGGGGSGGGGSDIVMTQAASSLSASLGDRVTISCRASQDISKYLNWYQQKPDGTVKLLIYYTSRLHSGVPSRFSGSGSGTDYSLTIRNLEQEDIATYFCQQVYTLPWTFGGGTKLEIKGGGGSGGGGSGGGGSGGGGSGGGGSEVQLVQSGAEVKKPGASVKVSCKASGYTFTSYYMHWVRQAPGQGLEWMGLINPSGGSTSYAQKFQGRVTMTRDTSTSTVYMELSSLRSEDTAVYYCARSDRGITATDAFDIWGQGTMVTVSSGGGGSGGGGSGGGGSQSVLTQPPSVSVAPGRMAKITCGGSDIGNKNVHWYQQKPGQAPVLVVYDDYDRPSGIPERFSGSNSGDAATLTISTVEVGDEADYFCQVWDGSGDPYWMFGGGTQLTVLGAAATTTPAPRPPTPAPTIASQPLSLRPEACRPAAGGAVHTRGLDFACDIYIWAPLAGTCGVLLLSLVITLYCKRGRKKLLYIFKQPFMRPVQTTQEEDGCSCRFPEEEEGGCELRVKFSRSADAPAYQQGQNQLYNELNLGRREEYDVLDKRRGRDPEMGGKPRRKNPQEGLYNELQKDKMAEAYSEIGMKGERRRGKGHDGLYQGLSTATKDTYDALHMQALPPR
notes: also called CAR TSLPR-19 BBz; tandem D0101 TSLPR×CD19 CAR
B10: D0102 (EF-1a-CD19 (19217_1)-TSLPR CD8 BBz) (other)
chain: EVQLVQSGAEVKKPGASVKVSCKASGYTFTSYYMHWVRQAPGQGLEWMGLINPSGGSTSYAQKFQGRVTMTRDTSTSTVYMELSSLRSEDTAVYYCARSDRGITATDAFDIWGQGTMVTVSSGGGGSGGGGSGGGGSQSVLTQPPSVSVAPGRMAKITCGGSDIGNKNVHWYQQKPGQAPVLVVYDDYDRPSGIPERFSGSNSGDAATLTISTVEVGDEADYFCQVWDGSGDPYWMFGGGTQLTVLGGGGGSGGGGSGGGGSGGGGSGGGGSQVTLKESGPGILKPSQTLSLTCSFSGFSLSTSGMGVGWIRQPSGKGLEWLAHIWWDDDKYYNPSLKSQLTISKDTSRNQVFLKITSVDTADTATYYCSRRPRGTMDAMDYWGQGTSVTVSSGGGGSGGGGSGGGGSDIVMTQAASSLSASLGDRVTISCRASQDISKYLNWYQQKPDGTVKLLIYYTSRLHSGVPSRFSGSGSGTDYSLTIRNLEQEDIATYFCQQVYTLPWTFGGGTKLEIKAAATTTPAPRPPTPAPTIASQPLSLRPEACRPAAGGAVHTRGLDFACDIYIWAPLAGTCGVLLLSLVITLYCKRGRKKLLYIFKQPFMRPVQTTQEEDGCSCRFPEEEEGGCELRVKFSRSADAPAYQQGQNQLYNELNLGRREEYDVLDKRRGRDPEMGGKPRRKNPQEGLYNELQKDKMAEAYSEIGMKGERRRGKGHDGLYQGLSTATKDTYDALHMQALPPR
notes: also called CAR 19-TSLPR BBz; tandem D0102 CD19×TSLPR CAR

Where a chain is given by its changes, count along the chain named. Where only a bound is given, the exact number is not on record here.

The first experiment addresses T1, recombinant human CD19 (labeled). Description: flow cytometry of yeast-displayed scFv with decreasing amounts of labeled CD19. Here is the method:
To increase the affinity of m19217, a yeast-display m19217 mutant scFv library was created by using error-prone PCR to create random point mutations in scFv gene sequences. After electroporation, the resulting mutant library was then grown overnight at 30° C. for 16 hours in SDCAA medium and then switched into SGCAA medium at 30° C. for another 16 hours. The mutant library was then sorted through MACS (immunomagentic column, Miltenyi Biotec) with CD19-Fc as the capture antigen to downsize the library and to increase the population of mutants that could bind to CD19-Fc. The strongest binders were then selected by double staining the pools with Anti-c-Myc-Alexa 488 and CD19-Fc/Anti-Hu-Fc and selecting for the binders that had the highest binding affinities as well as c-Myc expression levels. This process was then repeated two more times, until flow cytometry of yeast particles with fluorescently tagged antigen yielded average binding affinities of the mutant pools that were increased over the starting construct. Binding affinities were estimated by flow cytometry of yeast pools using decreasing amounts of labeled CD19.
For B1, the EC50 was determined as 0.5 µg/mL.
For the molecule B2, the EC50 is less than 0.01 µg/mL.
On the same count and under the same terms, then B3, with less than 0.01 µg/mL; and B4, with less than 0.01 µg/mL; and B5, with less than 0.01 µg/mL.
As for B6, the concentration giving a half-maximal response (EC50) was less than 0.01 µg/mL.
Regarding B7, the concentration for a half-maximal effect (EC50) is less than 0.01 µg/mL.
Consider B8, for which the EC50 was less than 0.01 µg/mL.

Another experiment addresses T2, TSLPR-Fc peptide (R&D systems). Kind of experiment: flow cytometry, CAR T cells stained with TSLPR-Fc then anti-Fc AF647. The procedure: Flow cytometric analysis was performed to detect the CAR molecule surface expression. Half million of harvested primary T cells were washed and stained with cold AutoMACS buffer supplemented with 0.5% bovine serum albumin (Miltenyi Biotec, Bergisch Gladbach, Germany), and resuspended in 200 ul Running Buffer before acquired by MACSQuant®10 Analyzer (Miltenyi Biotec Bergisch Gladbach, Germany). For CAR surface expression, TSLPR Fc, CD19Fc and CD22Fc peptide (R&D systems, Minneapolis, Minn.) were used followed anti Fc-AF647 (Jackson ImmunoResearch, West Grove, Pa.). T cell subtypes was further identified with anti-CD4 antibody conjugated to VioBlue fluorophore (Miltenyi Biotec Bergisch Gladbach, Germany). Dead cells in all studies were excluded by 7AAD staining (BD Biosciences, San Jose, Calif.). Flow data were analyzed with MACSQuantify software.
Specific detection of each scFv domain within the CAR structure was facilitated by CAR T cell staining with TSLPR-Fc peptide, or CD19-Fc peptide, followed by a secondary staining with anti-Fc AF647-labeled reagent, and fluorescence was detected in the APC channel. In CAR construct D0101, in which CD19 scFv was membrane-proximal and the TSLPR scFv was membrane-distal, the TSLPR scFv was detected at 44% of the transduced cells, and CD19 scFv was detected at 31%. In CAR construct D0102 with the reverse binder orientation (i.e. the TSLPR scFv membrane-proximal, and CD19 scFv membrane-distal), the detection levels were 85% and 75% for scFv TSLPR and CD19, respectively (FIG. 2).
With B9, the “percent of transduced T cells stained by antigen-Fc” value was 44%.
Turning to B10, the “percent of transduced T cells stained by antigen-Fc” value came to 85%.
